This passage reports Kd and yeast surface expression results from the FLAb antibody collection (doi:10.7554/elife.23156).

B1: scFv; the commonest letter at each place (parent)
chain 1: EVKLDETGGGLVQPGRPMKLSCVASGFTFSDYWMNWVRQSPEKGLEWVAQIRNKPYNYETYYSDSVKGRFTISRDDSKSSVYLQMNNLRVEDMGIYYCTGSYYGMDYWGQGTSVTVS
chain 2: DVVMTQTPLSLPVSLGDQASISCRSSQSLVHSNGNTYLRWYLQKPGQSPKVLIYKVSNRFSGVPDRFSGSGSGTDFTLKISRVEAEDLGVYFCSQSTHVPWTFGGGTKLEIK

Variants of B1 are the subject of data set [1]. Nature of the data set: Kd (Tite-Seq). As to conditions: with fluorescein; format: scFv 4-4-20, heavy + light.
Data set [2] covers variants of B1. Nature of the data set: yeast surface expression (ratio to wild type); higher = more expressed. As to conditions: format: scFv 4-4-20, heavy + light.

On to chain 1 EVKLDETGGGLVQPGRPMKLSCVASGFTFSDYWPNWARQSPEKGLEWVAQIRNKPYNYETYYSDSVKGRFTISRDDSKSSVYLQMNNLRVEDMGIYYCTGSYYGMDYWGQGTSVTVS chain 2 DVVMTQTPLSLPVSLGDQASISCRSSQSLVHSNGNTYLRWYLQKPGQSPKVLIYKVSNRFSGVPDRFSGSGSGTDFTLKISRVEAEDLGVYFCSQSTHVPWTFGGGTKLEIK [chain 1 M34P V37A], for which the Kd in data set [1] was no less than 10 µM. Moreover, in data set [2], the yeast surface expression turned out to be 0.897.

For chain 1 EVKLDETGGGLVQPGRPMKLSCVASGFTFSSYWMNWVRQSPEKGLEWVAQIRNKPYNYETYYSDSVKGRFTISRDDSKSSVYLQMNNLRVEDMGIYYCTGSYYGMDYWGQGTSVTVS chain 2 DVVMTQTPLSLPVSLGDQASISCRSSQSLVHSNGNTYLRWYLQKPGQSPKVLIYKVSNRFSGVPDRFSGSGSGTDFTLKISRVEAEDLGVYFCSQSTHVPWTFGGGTKLEIK [chain 1 D31S], the Kd in data set [1] is 0.00245 µM. In addition, the yeast surface expression in data set [2] amounted to 0.902.

For chain 1 EVKLDETGGGLVQPGRPMKLSCVASGFTFSDYWMNWVRQSPEKGLEWVAQIRNKPYNYETYYSDSVKGRFTISRDDSKSSVYLQMNNLRVEDMGIYYCTASRYGMDYWCQGTSVTVS chain 2 DVVMTQTPLSLPVSLGDQASISCRSSQSLVHSNGNTYLRWYLQKPGQSPKVLIYKVSNRFSGVPDRFSGSGSGTDFTLKISRVEAEDLGVYFCSQSTHVPWTFGGGTKLEIK [chain 1 G100A Y102R G109C], in data set [1], the Kd was no less than 10 µM. Moreover, in data set [2], the yeast surface expression came out at 0.266.

In the case of chain 1 EVKLDETGGGLVQPGRPMKLSCVASGFTFSDYWMNWVRQSPEKGLEWVAQIRNKPYNYETYYSDSVKGRFTISRDDSKSSVYLQMNNLRVEDMGIYYCTGTYYFMDYWGQGTSVTVS chain 2 DVVMTQTPLSLPVSLGDQASISCRSSQSLVHSNGNTYLRWYLQKPGQSPKVLIYKVSNRFSGVPDRFSGSGSGTDFTLKISRVEAEDLGVYFCSQSTHVPWTFGGGTKLEIK [chain 1 S101T G104F], the Kd in data set [1] is no less than 10 µM. Also, in data set [2], the yeast surface expression turned out to be 0.437.

Consider chain 1 EVKLDETGGGLVQPGRPMKLSCVASGFVFSDSWMNWFRQSPEKGLEWVAQIRNKPYNYETYYSDSVKGRFTISRDDSKSSVYLQMNNLRVEDMGIYYCTGSYYGMDYWGQGTSVTVS chain 2 DVVMTQTPLSLPVSLGDQASISCRSSQSLVHSNGNTYLRWYLQKPGQSPKVLIYKVSNRFSGVPDRFSGSGSGTDFTLKISRVEAEDLGVYFCSQSTHVPWTFGGGTKLEIK [chain 1 T28V Y32S V37F], for which the Kd in data set [1] is no less than 10 µM. Further, in data set [2], the yeast surface expression was determined as 0.818.

For chain 1 EVKLDETGGGLVQPGRPMKLSCVASGFTFSDYWMNWVRQSPEKGLEWVAQIRNKPYNYETYYSDSVKGRFTISRDDSKSSVYLQMNNLRVEDMGIYYCTGSMYGTDYTGQGTSVTVS chain 2 DVVMTQTPLSLPVSLGDQASISCRSSQSLVHSNGNTYLRWYLQKPGQSPKVLIYKVSNRFSGVPDRFSGSGSGTDFTLKISRVEAEDLGVYFCSQSTHVPWTFGGGTKLEIK [chain 1 Y102M M105T W108T], in data set [1], the Kd is no less than 10 µM. Besides, the yeast surface expression in data set [2] was found to be 0.539.

On to chain 1 EVKLDETGGGLVQPGRPMKLSCVASGFTFSDYWMNWVRQSPEKGLEWVAQIRNKPYNYETYYSDSVKGRFTISRDDSKSSVYLQMNNLRVEDMGIYYCTGSYLGGDYWGQGTSVTVS chain 2 DVVMTQTPLSLPVSLGDQASISCRSSQSLVHSNGNTYLRWYLQKPGQSPKVLIYKVSNRFSGVPDRFSGSGSGTDFTLKISRVEAEDLGVYFCSQSTHVPWTFGGGTKLEIK [chain 1 Y103L M105G], for which, in data set [1], the Kd was no less than 10 µM. The yeast surface expression in data set [2] was determined as 1.02.

For the variant chain 1 EVKLDETGGGLVQPGRPMKLSCVASGFTFSDYWMNWVRQSPEKGLEWVAQIRNKPYNYETYYSDSVKGRFTISRDDSKSSVYLQMNNLRVEDMGIYYCTGSYYGVDYWGQGTSVTVS chain 2 DVVMTQTPLSLPVSLGDQASISCRSSQSLVHSNGNTYLRWYLQKPGQSPKVLIYKVSNRFSGVPDRFSGSGSGTDFTLKISRVEAEDLGVYFCSQSTHVPWTFGGGTKLEIK [chain 1 M105V], in data set [1], the Kd was 4.25 µM. The yeast surface expression in data set [2] was determined as 0.993.

chain 1 EVKLDETGGGLVQPGRPMKLSCVASGFTFMDYWMNWVRQSPEKGLEWVAQIRNKPYNYETYYSDSVKGRFTISRDDSKSSVYLQMNNLRVEDMGIYYCTGSYYGMDYWGQGTSVTVS chain 2 DVVMTQTPLSLPVSLGDQASISCRSSQSLVHSNGNTYLRWYLQKPGQSPKVLIYKVSNRFSGVPDRFSGSGSGTDFTLKISRVEAEDLGVYFCSQSTHVPWTFGGGTKLEIK [chain 1 S30M]: the Kd in data set [1] was determined as 0.00175 µM. Further, the yeast surface expression in data set [2] is 0.855.

Take chain 1 EVKLDETGGGLVQPGRPMKLSCVASGFTASDYWMNWPRQSPEKGLEWVAQIRNKPYNYETYYSDSVKGRFTISRDDSKSSVYLQMNNLRVEDMGIYYCTGSYYGMDYWGQGTSVTVS chain 2 DVVMTQTPLSLPVSLGDQASISCRSSQSLVHSNGNTYLRWYLQKPGQSPKVLIYKVSNRFSGVPDRFSGSGSGTDFTLKISRVEAEDLGVYFCSQSTHVPWTFGGGTKLEIK [chain 1 F29A V37P]: the Kd in data set [1] is no less than 10 µM. For the same variant, the yeast surface expression in data set [2] stood at 0.153.

Regarding chain 1 EVKLDETGGGLVQPGRPMKLSCVASGFTFSDYWMNWVRQSPEKGLEWVAQIRNKPYNYETYYSDSVKGRFTISRDDSKSSVYLQMNNLRVEDMGIYYCTLSYYGMDYWSQGTSVTVS chain 2 DVVMTQTPLSLPVSLGDQASISCRSSQSLVHSNGNTYLRWYLQKPGQSPKVLIYKVSNRFSGVPDRFSGSGSGTDFTLKISRVEAEDLGVYFCSQSTHVPWTFGGGTKLEIK [chain 1 G100L G109S], the Kd in data set [1] was 9.5 µM. In addition, in data set [2], the yeast surface expression amounted to 0.566.

On to chain 1 EVKLDETGGGLVQPGRPMKLSCVASGFTFSDYWMNWVRQSPEKGLEWVAQIRNKPYNYETYYSDSVKGRFTISRDDSKSSVYLQMNNLRVEDMGIYYCTGTYYGMQYWGQGTSVTVS chain 2 DVVMTQTPLSLPVSLGDQASISCRSSQSLVHSNGNTYLRWYLQKPGQSPKVLIYKVSNRFSGVPDRFSGSGSGTDFTLKISRVEAEDLGVYFCSQSTHVPWTFGGGTKLEIK [chain 1 S101T D106Q], for which the Kd in data set [1] is no less than 10 µM. Further, the yeast surface expression in data set [2] came to 0.796.
